Key:
[1] = biological target: His6-tagged full-length TF (E. coli) (UniProt P0A850); assay: SEC-MALS; preliminary data on His6-tagged full-length TF; elution concentration 10 µM; conservative estimate of KD
[2] = biological target: RBD–SBD (1–148/247–432) (E. coli) (UniProt P0A850); assay: SEC-MALS; as a2 but 250 mM KCl; dimer to monomers
[3] = biological target: RBD–SBD (1–148/247–432) (E. coli) (UniProt P0A850); assay: SEC-MALS; as a2 but 500 mM KCl; dimer to monomers
[4] = biological target: RBD–SBD (1–148/247–432) (E. coli) (UniProt P0A850); assay: SEC-MALS; sample buffer (20 mM K-phosphate pH 6.5, 100 mM KCl, 0.5 mM EDTA); 6 °C for the individual domains; concentration series fitted to a fast monomer–dimer equilibrium; dimer to monomers
[5] = biological target: RBD–SBD (1–148/247–432) (E. coli) (UniProt P0A850); assay: AUC; sedimentation equilibrium, 6 °C, 100 mM KCl (sample buffer: 20 mM K-phosphate pH 6.5, 100 mM KCl, 0.5 mM EDTA); 12 μM TF, 48 and 135 μM RBD–SBD; global fit to a monomer–dimer model; dimer to monomers

Row | Substance | Kd [1] [µM] | stoichiometry N [1] | Kd [2] [µM] | Kd [3] [µM] | Kd [4] [µM] | stoichiometry N [4] | Kd [5] [µM]
1 | His6-tagged full-length TF (from UniProt P0A850 1-432) (natural protein) | < 0.1 | 2 |  |  |  |  | 
2 | RBD–SBD (1–148/247–432) (from UniProt P0A850 1-148; P0A850 247-432) (domain or fragment) |  |  | > 500 | > 500 | 72 | 2 | 54

From article PMC5722895
